This note sets out measurements from publication PMC12144448.

The target of the assay is Drosophila CMP-sialic acid synthetase (CSAS), wild-type, 3xFLAG-tagged (Drosophila). Kind of assay: SEC; clarified lysate of flies expressing CSAS-FLAG on a calibrated Superdex 75 10/30 HR column; 150 mM NaCl in 20 mM potassium phosphate pH 6.8; fractions analysed by FLAG Western blot.

“Drosophila CMP-sialic acid synthetase (CSAS), wild-type, 3xFLAG-tagged (enzyme)”: the stoichiometry N amounted to 2.
